Laboratory results published in publication PMC6175878, “ROS-induced R loops trigger a transcription-coupled but BRCA1/2-independent homologous recombination pathway through CSB” (Nature Communications, 2018).

Tests used:
[1] = target: 6H-Flag-CSB (human) (UniProt Q03468); assay: SEC; Superdex 200 in Buffer B (25 mM Tris-Cl pH 7.5, 10% glycerol, 0.5 mM EDTA, 500 mM KCl, 0.01% IGEPAL, 1 mM DTT), 4 °C; last step of the purification
[2] = target: T1, hRAD52 with a C-terminal 6x-his tag (human, UniProt P43351 1-418); assay: cross-linking; 1 mM DSS, 100 mM Hepes pH 7.5, 50 mM KCl, 25 °C, 1 h; cross-linked species (>250 kDa) cut from SDS-PAGE, trypsin, mass spectrometry (pLink); details: both partners purified
T1 construct: RAD52, human (hRAD52), from pET28b-RAD52; also called His-RAD52; RAD52 protein; source: E. coli Rosetta, purified (Affiblue, Ni-NTA); not shown: His6, C-terminal, kept
T1 sequence (looked up): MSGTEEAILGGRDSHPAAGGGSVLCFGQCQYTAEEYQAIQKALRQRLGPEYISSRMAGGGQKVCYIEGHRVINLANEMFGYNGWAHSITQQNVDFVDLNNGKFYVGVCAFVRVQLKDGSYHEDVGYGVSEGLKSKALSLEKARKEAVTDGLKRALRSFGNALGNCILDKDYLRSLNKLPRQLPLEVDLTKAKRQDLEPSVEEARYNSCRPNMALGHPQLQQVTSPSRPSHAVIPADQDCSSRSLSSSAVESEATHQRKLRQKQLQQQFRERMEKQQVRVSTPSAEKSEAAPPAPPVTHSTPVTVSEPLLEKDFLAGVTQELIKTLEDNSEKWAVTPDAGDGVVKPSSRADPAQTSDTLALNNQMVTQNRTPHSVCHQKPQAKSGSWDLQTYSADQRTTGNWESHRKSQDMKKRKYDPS

[3] = target: GST-CSB-CTD (human, UniProt Q03468 1200-1493); assay: EMSA; 1 mM Mg2+; EMSA: 25 mM Tris-HCl pH 7.5, 1 mM MgCl2, 1 mM DTT, 50 ug/mL BSA, 50 mM NaCl, 15 min 37 C, 6% PAGE-TBE at 4 C; pull-down: 20 mM Tris-HCl pH 7.5, 50 mM NaCl, 2 mM MgCl2, 0.1% Tween-20, 30% glycerol, RNase 0.2 U/uL (so in the source); details: protein: recombinant; tags: GST (N-term, pGEX-4T); label: 5' maleimide-IR800 on oligo 1 (RNA); blunt
GST-CSB-CTD, sequence (Q03468 1200-1493): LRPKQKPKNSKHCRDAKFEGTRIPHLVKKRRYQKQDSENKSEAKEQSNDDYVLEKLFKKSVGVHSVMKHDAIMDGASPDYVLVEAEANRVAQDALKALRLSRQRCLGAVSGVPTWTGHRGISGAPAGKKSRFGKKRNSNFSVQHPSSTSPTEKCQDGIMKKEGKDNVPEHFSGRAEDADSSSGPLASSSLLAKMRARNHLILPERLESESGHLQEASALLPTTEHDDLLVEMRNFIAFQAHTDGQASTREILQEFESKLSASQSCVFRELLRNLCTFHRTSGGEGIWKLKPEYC

[4] = target: GST-CSB-AD (human, UniProt Q03468 337-509); assay: as above; details: protein: recombinant; tags: GST (N-term, pGEX-4T-3); label: 5' maleimide-IR800 on oligo 1 (RNA); blunt
[5] = target: T2, RAD52 (human, UniProt P43351 1-418); assay: EMSA; 1 mM Mg2+; lower affinity than CSB-FL; EMSA: 25 mM Tris-HCl pH 7.5, 1 mM MgCl2, 1 mM DTT, 50 ug/mL BSA, 50 mM NaCl, 15 min 37 C, 6% PAGE-TBE at 4 C; pull-down: 20 mM Tris-HCl pH 7.5, 50 mM NaCl, 2 mM MgCl2, 0.1% Tween-20, 30% glycerol, RNase 0.2 U/uL (so in the source); details: protein: recombinant; tags: C-terminal 6xHis; label: 5' maleimide-IR800 on oligo 1 (RNA); blunt
T2 sequence: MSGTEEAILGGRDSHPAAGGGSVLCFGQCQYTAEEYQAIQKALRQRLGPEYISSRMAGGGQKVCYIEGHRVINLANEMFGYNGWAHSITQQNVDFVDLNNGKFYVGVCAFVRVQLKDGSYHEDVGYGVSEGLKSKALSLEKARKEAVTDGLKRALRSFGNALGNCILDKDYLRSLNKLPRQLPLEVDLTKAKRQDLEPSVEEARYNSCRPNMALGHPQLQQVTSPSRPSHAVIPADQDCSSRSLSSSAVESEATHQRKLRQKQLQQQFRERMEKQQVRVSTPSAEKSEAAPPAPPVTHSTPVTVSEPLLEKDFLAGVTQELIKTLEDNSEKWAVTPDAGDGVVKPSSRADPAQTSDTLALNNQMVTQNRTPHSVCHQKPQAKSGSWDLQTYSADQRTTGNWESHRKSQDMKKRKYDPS

[6] = target: 6H-Flag-CSB full length (CSB-FL) (human, UniProt Q03468 1-1493); assay: EMSA; 1 mM Mg2+; much higher affinity than RAD52; EMSA: 25 mM Tris-HCl pH 7.5, 1 mM MgCl2, 1 mM DTT, 50 ug/mL BSA, 50 mM NaCl, 15 min 37 C, 6% PAGE-TBE at 4 C; pull-down: 20 mM Tris-HCl pH 7.5, 50 mM NaCl, 2 mM MgCl2, 0.1% Tween-20, 30% glycerol, RNase 0.2 U/uL (so in the source); details: protein: recombinant; chain copies: 2; label: 5' maleimide-IR800 on oligo 1 (RNA); blunt
6H-Flag-CSB full length (CSB-FL), sequence (Q03468 whole entry): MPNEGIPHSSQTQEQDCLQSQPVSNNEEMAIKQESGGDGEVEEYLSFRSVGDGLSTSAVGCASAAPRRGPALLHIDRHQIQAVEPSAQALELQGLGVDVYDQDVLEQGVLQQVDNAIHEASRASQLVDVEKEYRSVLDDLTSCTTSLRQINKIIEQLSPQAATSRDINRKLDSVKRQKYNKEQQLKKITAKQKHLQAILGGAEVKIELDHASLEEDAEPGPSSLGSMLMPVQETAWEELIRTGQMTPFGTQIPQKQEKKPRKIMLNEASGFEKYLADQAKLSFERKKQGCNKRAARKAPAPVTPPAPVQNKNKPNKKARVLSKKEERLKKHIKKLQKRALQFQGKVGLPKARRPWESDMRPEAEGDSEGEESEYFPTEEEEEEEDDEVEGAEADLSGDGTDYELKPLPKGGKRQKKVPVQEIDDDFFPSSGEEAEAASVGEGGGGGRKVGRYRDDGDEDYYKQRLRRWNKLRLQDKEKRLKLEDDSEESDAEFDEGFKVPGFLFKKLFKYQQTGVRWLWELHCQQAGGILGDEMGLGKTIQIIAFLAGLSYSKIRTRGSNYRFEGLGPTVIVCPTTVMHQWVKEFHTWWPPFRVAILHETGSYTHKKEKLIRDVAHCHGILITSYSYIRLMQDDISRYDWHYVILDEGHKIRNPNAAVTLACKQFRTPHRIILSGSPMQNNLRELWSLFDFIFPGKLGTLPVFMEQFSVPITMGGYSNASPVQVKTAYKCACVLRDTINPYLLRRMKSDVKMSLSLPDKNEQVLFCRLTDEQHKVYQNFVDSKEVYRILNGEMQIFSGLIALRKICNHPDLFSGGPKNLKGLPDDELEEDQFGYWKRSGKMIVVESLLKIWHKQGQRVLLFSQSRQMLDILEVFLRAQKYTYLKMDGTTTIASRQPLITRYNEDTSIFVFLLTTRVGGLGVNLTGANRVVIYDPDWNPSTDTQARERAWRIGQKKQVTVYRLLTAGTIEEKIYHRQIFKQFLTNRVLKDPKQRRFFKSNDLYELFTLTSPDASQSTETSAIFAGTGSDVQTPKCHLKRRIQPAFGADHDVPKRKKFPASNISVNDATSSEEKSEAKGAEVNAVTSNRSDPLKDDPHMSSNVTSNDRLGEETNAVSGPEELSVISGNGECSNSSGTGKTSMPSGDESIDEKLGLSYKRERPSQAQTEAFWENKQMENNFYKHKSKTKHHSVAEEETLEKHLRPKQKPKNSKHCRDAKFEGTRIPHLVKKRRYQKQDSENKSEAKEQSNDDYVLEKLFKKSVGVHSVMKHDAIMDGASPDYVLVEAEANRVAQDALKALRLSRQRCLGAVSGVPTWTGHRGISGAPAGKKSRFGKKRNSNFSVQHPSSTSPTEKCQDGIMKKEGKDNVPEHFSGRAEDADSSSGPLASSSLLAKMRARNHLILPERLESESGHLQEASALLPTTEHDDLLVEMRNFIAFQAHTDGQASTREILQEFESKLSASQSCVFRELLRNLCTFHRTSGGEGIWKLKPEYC

With “6H-Flag-CSB (from UniProt Q03468 1-1493) (natural protein; other documents disagree on this pair)” as the molecule, how does the stoichiometry N [1] read?
The stoichiometry N was 2.

B1: GST-CSB-AD (residues 337-509) (domain or fragment, human, UniProt Q03468 337-509, looked up)
chain: KRALQFQGKVGLPKARRPWESDMRPEAEGDSEGEESEYFPTEEEEEEEDDEVEGAEADLSGDGTDYELKPLPKGGKRQKKVPVQEIDDDFFPSSGEEAEAASVGEGGGGGRKVGRYRDDGDEDYYKQRLRRWNKLRLQDKEKRLKLEDDSEESDAEFDEGFKVPGFLFKKLFK
notes: Cockayne Syndrome Protein B (CSB), human, acidic domain residues 337-509; Inserted into pGEX-4T-3 with XhoI and NotI; also called GST-tagged human CSB-AD; purified CSB-AD; source: E. coli Rosetta 2, purified (glutathione sepharose 4B)
Does B1 bind [2]?
Result: binds

B2: DNA:RNA hybrid oligo 1/oligo 2 (DNA:RNA)
RNA: UUAAUUGGUGUGACUAAUCGAAGUUGAUACAUCGACGUUAUGGUGAUGAU
DNA: ATCATCACCATAACGTCGATGTATCAACTTCGATTAGTCACACCAATTAA
What does the source list for B2?
binding result [3]: binds; binding result [4]: no binding; binding result [5]: binds; binding result [6]: binds
